Results published in the nanobody polyreactivity screen of Harvey et al. (2022).

Assay: yeast display, Sf9 membrane polyspecificity reagent, FACS + sequencing; frameworks hold sequencing errors
Summary of the method: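 Genes from sorted yeast were amplified by colony PCR, read by MiSeq 2 × 250 sequencing and filtered on CDR length. These cells carried a synthetic nanobody library in Saccharomyces cerevisiae BJ5465 and were sorted by FACS into low and high (top ~1%) gates on anti-HA and streptavidin fluorescence. Polyreactivity is labelled according to the gate of origin.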

| Sequence | polyreactivity (PSR sort gate) |
| --- | --- |
| QVQLVESGGGLVQAGGSLRLSCAASGRILYSYAMGWYRQAPGKERELVASISLSGGRTYADSVKGRFTISRDNAKNTVYLQMNSLKPEDTAVYYCNASIRTSRYLWQFDYWGQGTQVTVSS | high polyreactivity |
| QVQLVESGVGLVQAGGSLRLSCAASGRIFPTYAMGWYRQAPGQERELVAGITSGGRTNYADSVKGRFTISRDNAKNTVYLQMNSLKPEDTAVYYCAKRVWPRDQYGKRNPRMDYWGQGTQVTVSS | high polyreactivity |
| QVQLVESGGGLVQAGGSLRLSCAASGFTFSSYDMGWYRQAPGKDRDLVAAIDFIDGSTYYADSVKGRFTISRDNAKKTVYLQKNSLKPEDTAVYYCAADPVFKVELWPVRVRVDYWGQGTQVTVSS | low polyreactivity |
| QVQLVESGGGLVHAGGSLRLSCAASGNIFVEYAMGWYRQAPGKERELVAAITNSGGRTHYADSVKGRFTISRDNAKNTVYLQMNSLKPEDTAVYYCAAPTKYRSRRYYWGQGTQVTVSS | high polyreactivity |
| QVQLVESGGGLVQAGGSLRLRCAASGRTFSSNAMGWSRQAPGKERQLVASITWSGRTYYADSVKGRFTNSRDNAKNTVYLQMNSRNPEDHAVYYCATVYRQESYFYTLYYWGQGTQVTVSS | high polyreactivity |
| QVQLVESVGGLDQAGGSLRLSCPASGRTFGKYAMGWYRQSPGKERELVARISRRGGTTYYADSVKGRFTISRDNAKNTVYLQLNSLKPEDTAVYYCNARRRDYRHWYDYWGQGTQVTVSS | high polyreactivity |
| QVQLVESGGGLVQAGGSLRLSCAASGGTFKSAYVMGWYRQAPGKERELVAAIDSTGSTNYADSVKGRFTISRDNAKNTVYLQMNSLKPEDTAVYYCNADRRELYYDPMDYWGQGTQVTVSS | low polyreactivity |
| QVQLVESGGGLVQAGGSLRLSCAASGRIFRLYAMGWYRQAPGKERELVAAIRASGGNTYYADSVKGRFTISRDNAKNTVYLQMNSLKPEDSAVYYCAADYWSRYYTVPEWYNYWGQGTQVTVSS | high polyreactivity |
| QVQLVESGGGLVQAGGSLRLSCAASGSIFWFNAMGWYRQAPGKEREFVASISRSGGTTYYADSVKGRFTISRDTAKNTVYLQMYSLKPEDTAVYYCNARAYGNGLGTGYFGKHRYDYWGQGTQVTVSS | low polyreactivity |
| QGQLVESGGGLVQAGGSLRLSCAASGSMFYRYAMGWYRQAPGKERELVAVITSAGGTHYADSVKGRFTISRDNAKNTVYLQMTSLKPEDTAVDYCARRGYYYDYWGEGTQVTVSS | high polyreactivity |
| QVQLVESGGGLVQAGGSHRLSCAASGFIFRRNAMGWYRQAPGKERELVAAITKSGGSTYYADSVKGRFTISRDNAKNTVYLQMNSLKPEDTAVYYCAAKRQTGQSYYWGQGTQVTVSS | high polyreactivity |
| QVQLVESGGGLVQAGGSLRLSCSASGFIFTYVMGWYRQAPGKERELVAVITNGGSTYYADSVKGRFTISRDNAMNTVYLQMNSLKPEDTAVYYCAARARFRYDSYYYWGQGTQVTVSS | high polyreactivity |
| QVQLVESGGGLVQAGGSLRLSCAASGRTFWKYAMGWSRQAPGKERELVAAITDDDSTDYADSVKGRFTISRDNAKNTVYLQMTSLKPEYTAVYYCNADSSRYYRALEYWGQGTQVTVSS | low polyreactivity |
| QVQLVESGGGLVQAGGSLRLSCAASGLIFIDYAIGWYRQAPGKERELVAAITRGGARTYYADSVKGRFTISRDNAKNTVYLEMNSLKPEDTAVYYCAADRPGSRYIDVDYWGQGTQVTVSS | high polyreactivity |
| QVQLVESGGGLVQAGGSLRLSCAASGRTFRYYAMGWYRQAPGKERELVAAITVTVTSTFYADSVKGRFTISRDNAKNTVYLQMNSLKPEDTAVYYCAKVDRQYPGQYYYWGQGTQVTVSS | low polyreactivity |
| QVQLVESGGGLVQGGGSLRLSCAASGRTFRYYAMGWYRQAPGKERELVAAITRSGGSTYYADSVKGRFTISRDNAKYTVYLQMNSLKPEDTAVYYCAASRFTSYGIDYDYWAQGTQVTVSS | high polyreactivity |
| QGQHVESGVGLVQAGGSLRLSCAASVFMFESNAMGWYRQAPGKERELVAAITSAGRTYYADSVKGRFTISRDNAKNTVYLQMNSLKPEETAVYYCNAPRSRYRYDYWGQGTQVTVSS | high polyreactivity |
| QVQLVESAGGLVQAGGSLRLSCAASGMILWRYSMGWYRKAPGKEMEFVAAISYRAGSTYYADSVKGRFTISRDNAKNTVYLQMNSLKPEDTAVYYCAAGLKRFGSYPWLKSGMGYWGQGTQVTVSS | high polyreactivity |
| QVQLVESGGGLVQAGGSLSLSCAASGSTYFYAMGWYRQAPGKERELVAAISFSDGITYYADSVKGRFTISRDNAKNTVYLQMNSLKPEDTAVYYCAADYISLREEDYWGQGTQVTVSS | high polyreactivity |
| QVQLVESGGGLVQAGGSLRLSCAASGRIFSYNAMGWYRQAPGKERELVASISWSGGRTYYADSVKGRFTISRDNAKNTVYLQMNSLKPEDTAVYYCNAAYYTRVWGYDYWGQGTQVTVSS | high polyreactivity |
| QVQLVESGGGLVQAGGSLRLSCAASGRNFDDYAMGWYRQAPGKERELVAAISDSGGTTYYADSVKGRFTISRDNAKNTVYLQMNSLKPEDTAVYYCAKRYYGPHYWGQGTQVTVSS | low polyreactivity |
| QVQLVESGGGLVQAGGSLRLSCAASGSIFGHYAMGWYRPAPGKERELVAGISSSSGGRTYYADSVKGRFTISRDNAKNTVYLQMNSLKPEDTAVDYCAAVYSVQVSRRAKYYYWGQGTQVTVSS | high polyreactivity |

| Sequence | polyreactivity (PSR sort gate) |
| --- | --- |
| QVQLVESGGGLVQAGGSLRLICAASGYTFKIKGMGWYRQAPGKERELVATIRAGGGNTYYADSVKGRFTISRDNAKNTVYLQMNSLKPEDTAVYYCNARYLRRTMEYWGQGTQVTVSS | high polyreactivity |
| QVQLVESGGGLVQAGGSLRLSCAHSGSSFYRYSMRWYIQAPGKERELDAAISTSGGRTYYADSVKGRFSISRDNAKNTVYLQMNSLKPEDTAVYYCAADQYRYYRSTYDYWGQGTQVTVSS | high polyreactivity |
| QVQLVESCGRLVQAGGSLRISCAASGYTFSYYAMGWYRQAHGKERELVAAINYSGGRTYYADSVKGRFTISRDNAKNNVYLQMNSLKPEDTAVYYCSAYTRNGEYDYWGQGTQVTVSS | high polyreactivity |
| QVQLVESGGGLVQAGGSLRLSCAASGFIFRDYVMGWYRQAPGKERELVAAISYRDGSTYYADSVKGRFTISRDNAKNTVYLQMNSLKPEDTAVYYCNAPGYQGYEYWGQGTQVTVSS | low polyreactivity |
| QVQLVESGGGLDQAGGSLRLSCAASGSTFPSYAMGWYRQAPGKERELVAAINSGGGTNYADSVKGRFTISRDNAKNTVYLQMNSLKPEDTAVYYCAKSRYDYTKTEGGYWGQGTQVTVSS | low polyreactivity |
| QVQLVESGGGLVQAGGSLRLSCAASGSIFDQYTMGWYRQAPGKARELVAAIRFSGGSTSYADSVKGRFTISRDNAKNTVYLQMISLKPEDTAVYYCNVDAITGGDWEDFDYWGQGTQVTVSS | low polyreactivity |
| QVQLVESGGGLVQAGGSLRLSCAASGSTFGSYGMGWYRQSPGKERELVAGITSAGSTYYADSVKGRFTISRDNAKNTVYLQMNSLKPEDTAVYYCNARSGIVWYYDNDYWGQGTQVTVSS | low polyreactivity |
| QVQLVESGGGLVQAGRSHRLSFAASGFTLKGYAMGWYRQAPGKDRELVAAISWNGGRTYYADSVKGRFTISRDNAKNTVYLQMNSLKPEVTAVYYCAAVYRFYSPTKYTYDYWGQGTQVTVSS | high polyreactivity |
| QVQLVESGGGLVQAGGSLRLSCAASGSTFGYYAMGWYRQAPGKERELVAAITSGASTNYADSVKGRFTISRDNAKNTVYLQMNSLKPEDTAVYYCAAANLQYGKDVQGDYWGQGTQVTVSS | low polyreactivity |
| QVQLVESGGGLVQAGGSLRLSCAASGFIFATNAMGWYIQAPGKERELVAAITWSGATTYYADSVKGRFTISRDNAKNTVYLQMNSLKPEDTAVYYCAARRYVYGSPYSTYRYGYWGQGTQVTVSS | high polyreactivity |
| QVQLVESGGGLVQAGGSLRLSCAASGSIFDYKAMGWYRQAPGKERELFADITISDDSTYYADSVKGRFTISRDNAKNTVYLQMNSLKPEDTAVYYCAADIKYYWYYYYWAYAYDYWGHGTQVTVSS | high polyreactivity |
| QVQLVESGGGLVQAGGSLRLSCAASGFTFVVYAMGWYRQAPGKERELVAAIRRTGGSTYYADSVKGRFTISRDNAKNTVYLQMNSLKPEDTAVYYCAAHAISYQSRYRYRYGSVDYWGQGTQVTVSS | high polyreactivity |
| QVQLVESGGGLVQAGGSLRLSCAASGSIFWFNAMGWYRQAPGKERELVAAITITGGSTYYADSVKGRFTISRDNAKNTVYLQMNSLKPEDTAVYYCAAGTGSRDDYWGQGTQVTVSS | high polyreactivity |
| QVQLVESGGGLVQAGGSLRLSCAASGSIFSFYAMGWYRQAPGKESELVAAISRSGGSTYYADSVKGRFTISRDNAKNTVYLQMNSQKPEDTAVYYCAVYAFSYPRYYYWGQGTQVTVSS | low polyreactivity |
| QVQLVESGGGLVQAGGSLRLSCAASGSIFGFYAMGWYRQAPGKERELVAAITSGDSTHYADSVKGRFTISRDNAKNTVYLQMNSLKPEDTAVYYCAASAPYRYYRSAYYYWGQGTQVTVSS | low polyreactivity |
| QVQLVESGGGLVQAGGSLRLSCAASGFIIPGYAMGWYRQAPGKERELVAAISRSGTSTYYADSVKGRFTISRDNAKNTVYLQMNSLKPEDTAVYYCAAKPASLSVRGYDYWGQGTQVTVSS | high polyreactivity |
| QVQLQESGGGLVLAGGSLRLSCAASGSIFLFYTMGWYRQAPVKEREFVAGITLRTPTYNADSVKGRFTISRDNVKNTVYLQMNSLKPEDTAVYYCAVAVGHYTEIWYWGQGTQVTMSS | high polyreactivity |
| QVQLVESGGGLVQAGGSLRLSCAASGSIFYQNAMGWYRQAPGKERELVAAITSDGSTYYADSVKGRFTISRDNAKNTVYLQMNSLKPEDTAVYYCAAEYYGHRYDYWGQGTQVTVSS | low polyreactivity |
| QVQLVESGGGLVQAGGSLRLSCAASGLIFSVNAMGWYRQAPGKERELVAAITWSSGRTYYADSVKGRFTISRDNAKNTVYLQMNSLKPEDTAVYYCAAVSYWYGQMYYWGHGTQVTVSS | high polyreactivity |
| QVQLVESGGGLVQAGGSLRLSCAASGSIFYYYSMGWYRQAPGKERELVAAMSTGGGSTYYADSVKGRFTISRDNAKNTVYLQMNSLKPEDTSVYYCAAPWGYYSSFTDDYWGQGTQVTVSS | low polyreactivity |
| QVQLVESGGGLVQAGGSLRLSCAASGRTFNYYVMGWFRQAPGKERELVATINWSGGSTYYADSVKGRFTISRDNAKNTVYLQMNSLKPEDTAVYYCAARWFYHRNHNRNYWGQGTQVTVSS | high polyreactivity |
